{
  "source": "paper PMC3971370",
  "about": "(Molecular plant, 2012)",
  "binders": {"B1": {"name": "cCFP–TPK1–R35A/R39A (natural protein)", "chain": "MSSDAARTPLLPTEKIDTMAQDFNLNSRTSSSRKARLRASRSAPRGDCMYNDDVKIDEPPPHPSKIPMFSDLNPNLRRVIMFLALYLTIGTLCFYLVRDQISGHKTSGVVDALYFCIVTMTTVGYGDLVPNSSASRLLACAFVFSGMVLVGHLLSRAADYLVEKQEALLVRAFHLRQSFGPTDILKELHTNKLRYKCYATCLVLVVLFIVGTIFLVMVEKMPVISAFYCVCSTVTTLGYGDKSFNSEAGRLFAVFWILTSSICLAQFFLYVAELNTENKQRALVKWVLTRRITNNDLEAADLDEDGVVGAAEFIVYKLKEMGKIDEKDISGIMDEFEQLDYDESGTLTTSDIVLAQTTSQIQR"}},
  "biological_target": "nCFP–CPK3 (Arabidopsis thaliana, UniProt Q42479 1-529)",
  "sequence (Q42479 whole entry)": "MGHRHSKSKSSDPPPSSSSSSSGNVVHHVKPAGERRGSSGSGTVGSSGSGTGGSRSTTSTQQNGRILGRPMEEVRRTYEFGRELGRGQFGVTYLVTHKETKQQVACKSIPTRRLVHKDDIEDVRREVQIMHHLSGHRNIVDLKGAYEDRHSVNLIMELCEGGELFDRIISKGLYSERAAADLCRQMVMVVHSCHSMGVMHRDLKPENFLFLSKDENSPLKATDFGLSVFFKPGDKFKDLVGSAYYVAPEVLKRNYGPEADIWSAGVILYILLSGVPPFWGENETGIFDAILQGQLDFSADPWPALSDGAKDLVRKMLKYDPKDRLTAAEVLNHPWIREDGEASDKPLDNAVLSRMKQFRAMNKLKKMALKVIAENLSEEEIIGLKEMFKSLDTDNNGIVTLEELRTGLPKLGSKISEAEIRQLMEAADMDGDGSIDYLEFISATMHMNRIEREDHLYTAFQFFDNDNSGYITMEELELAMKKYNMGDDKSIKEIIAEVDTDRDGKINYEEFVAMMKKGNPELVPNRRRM",
  "assay": "split reporter",
  "data": [
    {"binder": "B1", "values": [
      {"measurement": "BiFC signal relative to wild-type TPK1", "result": "~0.5 fold of wild type"}
    ]}
  ]
}
